Measured values published in patent CN107081136A.

Tests used:
[1] = target: Myc-GST融合蛋白 (Myc-GST fusion protein); experiment: ELISA, Myc-GST coated at 5 μg/mL, HRP anti-His secondary antibody, heat-stability test at 70℃
[2] = target: Myc-GST融合蛋白 (Myc-GST fusion protein); experiment: ELISA, Myc-GST coated at 5 μg/mL, HRP anti-His secondary antibody, heat-stability test at 90℃
[3] = target: Myc-GST融合蛋白 (Myc-GST fusion protein); experiment: ELISA, Myc-GST coated at 5 μg/mL, HRP anti-His secondary antibody, heat-stability test at 80℃

OD450 [1]: 1.5 OD450
OD450 [2]: 1.2 OD450
OD450 [3]: 1.3 OD450
B1: 抗c-Myc标签单域重链抗体 (anti-c-Myc tag single-domain heavy-chain antibody) (VHH, not shown: small tags and cut ends)
VHH: QLQLVESGGGLVQPGGSLRLSCTVSGFPLDNYAIGWLRQAPGKEREGVACISNRGGRTDYVDSVRGRFTISRDNAKKTVYLQMHNLKPEDTGIYYCVAPEMFRPCKLSSEDVRHWGHGTQVTVSS
